From patent publication US20140141002A1 (UNIVERSITY OF NORTH CAROLINA AT CHAPEL HILL, published 2014)
Changes are numbered by the printed parent chain.

What was measured:
[1] = biological target: Src homology 2 domain containing protein tyrosine phosphatase substrate 1 (SHPS-1), endogenous in porcine aortic smooth muscle cells (porcine) (UniProt F1S887); test: SHPS-1 immunoprecipitated from transfected pSMCs, immunoblot for FLAG, densitometry
[2] = biological target: T1, integrin associated protein (IAP), endogenous in porcine aortic smooth muscle cells (porcine) (UniProt Q9GKE8); test: pSMCs incubated 2 h with B6H12 (4 ug/ml); SHPS-1 immunoprecipitated, immunoblot for IAP, densitometry
T1 sequence (looked up): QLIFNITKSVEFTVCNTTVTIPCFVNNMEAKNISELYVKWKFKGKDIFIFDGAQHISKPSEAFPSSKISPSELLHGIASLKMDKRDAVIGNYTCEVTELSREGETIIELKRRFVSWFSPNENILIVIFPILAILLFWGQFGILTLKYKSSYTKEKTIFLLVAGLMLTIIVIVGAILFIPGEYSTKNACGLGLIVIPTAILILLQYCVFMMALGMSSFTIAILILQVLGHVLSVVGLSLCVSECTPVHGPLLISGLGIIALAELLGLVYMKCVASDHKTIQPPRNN

[3] = biological target: T2, Src homology 2 domain containing protein tyrosine phosphatase substrate 1 (SHPS-1), endogenous in porcine … (porcine, UniProt F1S887 31-509); test: cell-based or functional assay
T2 sequence: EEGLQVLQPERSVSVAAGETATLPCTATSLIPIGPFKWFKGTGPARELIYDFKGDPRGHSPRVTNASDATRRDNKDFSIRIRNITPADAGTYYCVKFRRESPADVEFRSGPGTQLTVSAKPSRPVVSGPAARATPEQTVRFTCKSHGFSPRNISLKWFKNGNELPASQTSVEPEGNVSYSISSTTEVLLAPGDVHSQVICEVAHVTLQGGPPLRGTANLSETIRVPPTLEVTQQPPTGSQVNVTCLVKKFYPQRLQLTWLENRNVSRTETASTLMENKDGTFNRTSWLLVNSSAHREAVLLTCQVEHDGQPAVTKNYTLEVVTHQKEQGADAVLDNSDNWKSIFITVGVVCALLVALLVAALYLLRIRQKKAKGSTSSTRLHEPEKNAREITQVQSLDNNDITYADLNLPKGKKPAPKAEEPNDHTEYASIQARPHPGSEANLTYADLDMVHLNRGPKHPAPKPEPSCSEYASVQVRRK

IAP with truncation of extracellular domain at residue 135 and containing a C-terminal FLAG epitope (IAPcyto) (from UniProt Q9GKE8 135-303) (receptor)
% reduction in IAP association with SHPS-1 compared with cells expressing IAP fl [1]: 88%

B1: anti IAP monoclonal antibody B6H12 (antibody, from another filing)
scFv: EVQLVESGGDLVKPGGSLKLSCAASGFTFSGYGMSWVRQTPDKRLEWVATITSGGTYTYYPDSVKGRFTISRDNAKNTLYLQIDSLKSEDTAIYFCARSLAGNAMDYWGQGTSVTVSSGGGGSGGGGSGGGGSDIVMTQSPATLSVTPGDRVSLSCRASQTISDYLHWYQQKSHESPRLLIKFASQSISGIPSRFSGSGSGSDFTLSINSVEPEDVGVYYCQNGHGFPRTFGGGTKLEIKEQKLISEEDL
% reduction of the interaction between IAP and SHPS-1 [2]: 75%

B2: integrin associated protein (IAP), endogenous in porcine aortic smooth muscle cells (receptor, UniProt Q9GKE8 19-303, looked up)
chain: T1 sequence (looked up)
IGF-1 stimulated cell proliferation, cells incubated with B6H12 [3]: 1.03 fold | IGF-1 stimulated increase in SHPS-1 phosphorylation, cells pretreated with B6H12 [3]: 0.93 fold | fold increase in SHPS-1 phosphorylation in response to IGF-1, control cells (no antibody) [3]: 4.1 fold | fold increase in cell proliferation with IGF-1, no antibody [3]: 2.2 fold
